Values of other authors, collected in article PMC3509699.
Read-outs that look alike come from different tables or passages of the source.

Legend:
KV1.3 (Homo sapiens) [1] = target: KV1.3 (Homo sapiens) (UniProt P22001)
KCa3.1 (Homo sapiens) [2] = target: KCa3.1 (Homo sapiens) (UniProt O15554)
KCa3.1 (Homo sapiens) [3] = target: KCa3.1 (Homo sapiens) (UniProt O15554); remark: listed apart in the source
KV1.3 (Homo sapiens) [4] = target: KV1.3 (Homo sapiens) (UniProt P22001); remark: listed apart in the source

Chain of UniProt P22001 (P22001 whole entry): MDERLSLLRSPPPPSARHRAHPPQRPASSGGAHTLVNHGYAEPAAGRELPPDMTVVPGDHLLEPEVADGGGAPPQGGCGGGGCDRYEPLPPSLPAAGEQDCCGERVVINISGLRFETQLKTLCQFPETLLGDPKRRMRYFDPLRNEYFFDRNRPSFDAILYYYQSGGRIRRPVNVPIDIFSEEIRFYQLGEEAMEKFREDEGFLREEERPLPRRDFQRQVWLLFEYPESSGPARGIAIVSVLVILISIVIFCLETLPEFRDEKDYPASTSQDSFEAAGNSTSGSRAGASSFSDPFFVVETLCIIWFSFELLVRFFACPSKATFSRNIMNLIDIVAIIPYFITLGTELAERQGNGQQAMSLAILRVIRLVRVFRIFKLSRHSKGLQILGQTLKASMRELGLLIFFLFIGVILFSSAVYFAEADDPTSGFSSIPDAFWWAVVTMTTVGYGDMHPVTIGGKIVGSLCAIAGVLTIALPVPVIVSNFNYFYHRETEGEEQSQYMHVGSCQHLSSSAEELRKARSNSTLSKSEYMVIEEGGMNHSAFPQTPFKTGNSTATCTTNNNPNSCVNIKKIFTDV
Chain of UniProt O15554 (O15554 whole entry): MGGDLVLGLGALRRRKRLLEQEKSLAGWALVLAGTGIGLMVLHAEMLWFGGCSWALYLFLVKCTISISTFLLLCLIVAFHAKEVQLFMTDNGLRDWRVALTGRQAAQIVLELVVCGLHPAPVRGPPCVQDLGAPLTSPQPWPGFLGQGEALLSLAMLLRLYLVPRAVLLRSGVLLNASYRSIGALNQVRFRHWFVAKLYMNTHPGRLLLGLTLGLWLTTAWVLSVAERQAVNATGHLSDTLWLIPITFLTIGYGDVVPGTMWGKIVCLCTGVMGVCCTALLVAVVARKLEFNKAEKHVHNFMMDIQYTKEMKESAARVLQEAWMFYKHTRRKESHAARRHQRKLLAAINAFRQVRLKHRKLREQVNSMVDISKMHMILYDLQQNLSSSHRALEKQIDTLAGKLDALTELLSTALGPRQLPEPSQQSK

Substance: BmKTX (from UniProt Q9NII7)
- Kd (KV1.3 (Homo sapiens) [1]): 0.2 nM

Substance: Maurotoxin (MTX) (from UniProt P80719)
- Kd (KCa3.1 (Homo sapiens) [2]): 1 nM

Substance: Charybdotoxin (ChTx) (from UniProt P13487)
- Kd (KCa3.1 (Homo sapiens) [3]): 5 nM

Substance: Margatoxin (from UniProt P40755)
- Kd (KV1.3 (Homo sapiens) [4]): 0.11 nM
